Experiments:
[1] = molecular target: T1, human P-selectin glycoprotein ligand-1 (PSGL-1), expressed on Sp2/0-hPSGL-1 cells (human, UniProt Q14242 42-412); assay: cell-based or functional assay
T1 sequence: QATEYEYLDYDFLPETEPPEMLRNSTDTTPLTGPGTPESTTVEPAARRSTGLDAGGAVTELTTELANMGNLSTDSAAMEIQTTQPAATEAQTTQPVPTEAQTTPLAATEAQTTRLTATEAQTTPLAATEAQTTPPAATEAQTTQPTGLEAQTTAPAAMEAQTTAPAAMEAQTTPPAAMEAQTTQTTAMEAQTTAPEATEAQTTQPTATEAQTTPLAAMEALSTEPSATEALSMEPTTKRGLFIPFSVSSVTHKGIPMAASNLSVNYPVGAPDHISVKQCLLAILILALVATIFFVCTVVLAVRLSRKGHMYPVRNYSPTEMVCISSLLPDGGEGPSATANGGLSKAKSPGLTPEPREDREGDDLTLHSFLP

[2] = molecular target: T1, human P-selectin glycoprotein ligand-1 …; assay: flow cytometry on Sp2/0-hPSGL-1 cells, antibody at 0.1 µg/mL
Experimental: (§1) Sp2/0 cells transfected with human PSGL-1 (Sp2/0-hPSGL1) were used as the PSGL-1 expressing cell line. Sp2/0-hPSGL1 cells were centrifuged at 1200 rpm for 5 min. The cell pellets were resuspended in FACS buffer (PBS containing 1% FBS) and pipetted into 96 well plate (1×10⁵ cells/well). To each well was added 100 μl of supernatants containing humanized 15A7H (h15A7H)/tetravalent antibodies, and these were incubated for 60 min at 4° C. The cells were washed three times with cold FACS buffer and then incubated with 100 μl of Mouse Anti-Human IgG₄ pFc′-PE (SouthernBiotech Cat. no. 9190-09) at 1 μg/ml concentration for 60 min at 4° C. Subsequently, the cells were washed three times with cold FACS buffer and analyzed by FACS analysis. All flow cytometric analyses were performed on a BD-LSR flow cytometer (Becton Dickinson) using the Cell Quest software.
(§2) The binding ability of h15A7H tetravalent antibodies was evaluated in human PSGL-1 SP2/O cells. The h15A7H tetravalent antibody bound positively to the SP2/O-hPSGL-1, but not to parental SP2/O cell lacking of hPSGL-1 antigen (Table A below). Additionally, wild type h15A7H and all of h15A7H tetravalent antibodies gave similar binding activity on SP2/O-hPSGL-1 (Table A).

[3] = molecular target: T1, human P-selectin glycoprotein ligand-1 …; assay: flow cytometry on Sp2/0-hPSGL-1 cells, antibody at 0.3 µg/mL
Experimental: as §1, §2

[4] = molecular target: T1, human P-selectin glycoprotein ligand-1 …; assay: flow cytometry on Sp2/0-hPSGL-1 cells, antibody at 1 µg/mL
Experimental: as §1, §2

[5] = molecular target: T1, human P-selectin glycoprotein ligand-1 …; assay: flow cytometry on Sp2/0-hPSGL-1 cells, antibody at 3 µg/mL
Experimental: as §1, §2

B1: h15A7H (antibody, IgG4, V domains shown)
VH: EVQLVESGGGLVQPGGSLRLSCAASGFTFSSFGMHWVRQAPGKGLEWVAYINGGSSTIFYANAVKGRFTISRDNAKNTLYLQMNSLRAEDTAVYYCARYASYGGGAMDYWGQGTLVTVSS
VL: DIQMTQSPSSLSASVGDRVTITCRSSQSIVHNDGNTYFEWYQQKPGKAPKLLIYKVSNRFSGVPSRFSGSGSGTHFTLTISSLQPEDFATYYCFQGSYVPLTFGQGTKVEIK
notes: Bivalent humanized IgG4 kappa antibody with the S228P hinge mutation; also called humanized 15A7H; wild type h15A7H; not shown: human immunoglobulin kappa light chain constant region
Apoptosis % (background subtracted, n = 4), mean, at 0.0625 µg/mL, SP2/O-hPSGL-1 cells, Annexin V/PI [1]: 1.5% | Apoptosis % (background subtracted, n = 4), mean, at 0.5 µg/mL, SP2/O-hPSGL-1 cells, Annexin V/PI [1]: 2.75% | mean fluorescence intensity [2]: 3410 MFI | mean fluorescence intensity [3]: 5940 MFI | mean fluorescence intensity [4]: 6400 MFI | mean fluorescence intensity [5]: 4670 MFI

B2: h15A7H scFv4-crIgG4p (antibody)
light: EVQLVESGGGLVQPGGSLRLSCAASGFTFSSFGMHWVRQAPGKCLEWVAYINGGSSTIFYANAVKGRFTISRDNAKNTLYLQMNSLRAEDTAVYYCARYASYGGGAMDYWGQGTLVTVSSGGGGSGGGGSGGGGSGGGGSGGGGSDIQMTQSPSSLSASVGDRVTITCRSSQSIVHNDGNTYFEWYQQKPGKAPKLLIYKVSNRFSGVPSRFSGSGSGTHFTLTISSLQPEDFATYYCFQGSYVPLTFGCGTKVEIKRTVAAPSVFIFPPSDEQLKSGTASVVCLLNNFYPREAKVQWKVDNALQSGNSQESVTEQDSKDSTYSLSSTLTLSKADYEKHKVYACEVTHQGLSSPVTKSFNRGEC
heavy: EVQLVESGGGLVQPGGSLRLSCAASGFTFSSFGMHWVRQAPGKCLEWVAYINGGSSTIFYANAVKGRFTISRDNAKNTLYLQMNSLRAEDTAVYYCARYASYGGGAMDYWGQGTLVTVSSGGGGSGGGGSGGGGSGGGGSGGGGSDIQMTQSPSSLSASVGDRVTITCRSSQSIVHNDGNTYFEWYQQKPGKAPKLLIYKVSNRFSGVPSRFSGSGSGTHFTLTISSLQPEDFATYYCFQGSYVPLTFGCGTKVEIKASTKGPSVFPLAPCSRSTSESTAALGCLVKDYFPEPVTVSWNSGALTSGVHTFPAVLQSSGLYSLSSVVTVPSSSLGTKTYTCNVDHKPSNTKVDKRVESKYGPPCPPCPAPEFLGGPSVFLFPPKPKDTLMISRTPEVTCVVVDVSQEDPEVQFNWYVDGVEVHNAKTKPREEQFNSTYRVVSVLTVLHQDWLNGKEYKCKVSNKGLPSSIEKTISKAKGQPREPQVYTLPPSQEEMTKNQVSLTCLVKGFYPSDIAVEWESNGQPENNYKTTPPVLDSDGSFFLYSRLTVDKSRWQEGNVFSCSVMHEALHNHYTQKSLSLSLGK
notes: Tetravalent: four v2 scFv units fused without a linker to the N-termini of the kappa and IgG4p constant regions
Apoptosis % (background subtracted, n = 4), mean, at 0.0625 µg/mL, SP2/O-hPSGL-1 cells, Annexin V/PI [1]: 1.75% | Apoptosis % (background subtracted, n = 4), mean, at 0.5 µg/mL, SP2/O-hPSGL-1 cells, Annexin V/PI [1]: 35.8% | mean fluorescence intensity [2]: 2640 MFI | mean fluorescence intensity [3]: 4640 MFI | mean fluorescence intensity [4]: 6010 MFI | mean fluorescence intensity [5]: 5940 MFI

B3: h15A7H LC-scFv2-IgG4p (antibody)
light: DIQMTQSPSSLSASVGDRVTITCRSSQSIVHNDGNTYFEWYQQKPGKAPKLLIYKVSNRFSGVPSRFSGSGSGTHFTLTISSLQPEDFATYYCFQGSYVPLTFGQGTKVEIKRTVAAPSVFIFPPSDEQLKSGTASVVCLLNNFYPREAKVQWKVDNALQSGNSQESVTEQDSKDSTYSLSSTLTLSKADYEKHKVYACEVTHQGLSSPVTKSFNRGECGGGGSGGGGSEVQLVESGGGLVQPGGSLRLSCAASGFTFSSFGMHWVRQAPGKCLEWVAYINGGSSTIFYANAVKGRFTISRDNAKNTLYLQMNSLRAEDTAVYYCARYASYGGGAMDYWGQGTLVTVSSGGGGSGGGGSGGGGSGGGGSGGGGSDIQMTQSPSSLSASVGDRVTITCRSSQSIVHNDGNTYFEWYQQKPGKAPKLLIYKVSNRFSGVPSRFSGSGSGTHFTLTISSLQPEDFATYYCFQGSYVPLTFGCGTKVEIKAAAHHHHHHHHHH
heavy: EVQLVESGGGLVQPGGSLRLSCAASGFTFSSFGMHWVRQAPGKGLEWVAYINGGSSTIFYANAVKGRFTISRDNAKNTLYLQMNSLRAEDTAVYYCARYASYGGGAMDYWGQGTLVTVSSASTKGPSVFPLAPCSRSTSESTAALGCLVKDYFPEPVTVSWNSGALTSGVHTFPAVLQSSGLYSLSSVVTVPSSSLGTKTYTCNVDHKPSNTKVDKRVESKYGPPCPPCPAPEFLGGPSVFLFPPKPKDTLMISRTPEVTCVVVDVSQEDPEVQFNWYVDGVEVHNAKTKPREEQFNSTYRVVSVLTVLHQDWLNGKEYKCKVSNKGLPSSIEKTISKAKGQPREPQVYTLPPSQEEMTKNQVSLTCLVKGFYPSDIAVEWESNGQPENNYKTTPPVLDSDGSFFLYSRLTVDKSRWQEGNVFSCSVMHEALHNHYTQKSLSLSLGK
notes: Tetravalent: a v2 scFv fused to the C-terminus of each kappa light chain of h15A7H IgG4p
Apoptosis % (background subtracted, n = 4), mean, at 0.0625 µg/mL, SP2/O-hPSGL-1 cells, Annexin V/PI [1]: 0.5% | Apoptosis % (background subtracted, n = 4), mean, at 0.5 µg/mL, SP2/O-hPSGL-1 cells, Annexin V/PI [1]: 18% | mean fluorescence intensity [2]: 3040 MFI | mean fluorescence intensity [3]: 3480 MFI | mean fluorescence intensity [4]: 5820 MFI | mean fluorescence intensity [5]: 6030 MFI

B4: h15A7H scFv2-LC-IgG4p (antibody)
light: EVQLVESGGGLVQPGGSLRLSCAASGFTFSSFGMHWVRQAPGKCLEWVAYINGGSSTIFYANAVKGRFTISRDNAKNTLYLQMNSLRAEDTAVYYCARYASYGGGAMDYWGQGTLVTVSSGGGGSGGGGSGGGGSGGGGSGGGGSDIQMTQSPSSLSASVGDRVTITCRSSQSIVHNDGNTYFEWYQQKPGKAPKLLIYKVSNRFSGVPSRFSGSGSGTHFTLTISSLQPEDFATYYCFQGSYVPLTFGCGTKVEIKASTGSGGGGSDIQMTQSPSSLSASVGDRVTITCRSSQSIVHNDGNTYFEWYQQKPGKAPKLLIYKVSNRFSGVPSRFSGSGSGTHFTLTISSLQPEDFATYYCFQGSYVPLTFGQGTKVEIKRTVAAPSVFIFPPSDEQLKSGTASVVCLLNNFYPREAKVQWKVDNALQSGNSQESVTEQDSKDSTYSLSSTLTLSKADYEKHKVYACEVTHQGLSSPVTKSFNRGEC
heavy: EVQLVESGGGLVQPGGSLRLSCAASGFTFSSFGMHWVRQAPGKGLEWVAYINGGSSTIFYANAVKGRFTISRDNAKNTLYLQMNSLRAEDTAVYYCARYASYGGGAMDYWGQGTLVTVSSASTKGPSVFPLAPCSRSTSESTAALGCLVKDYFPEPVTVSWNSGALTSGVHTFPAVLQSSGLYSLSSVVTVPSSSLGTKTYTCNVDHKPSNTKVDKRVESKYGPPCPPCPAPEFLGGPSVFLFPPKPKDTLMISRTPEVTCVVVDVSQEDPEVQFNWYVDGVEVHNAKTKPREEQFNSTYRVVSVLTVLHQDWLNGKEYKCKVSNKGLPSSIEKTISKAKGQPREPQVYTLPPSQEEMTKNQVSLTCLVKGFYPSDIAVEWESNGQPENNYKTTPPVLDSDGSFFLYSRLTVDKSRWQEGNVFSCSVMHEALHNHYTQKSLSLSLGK
notes: Tetravalent: a v2 scFv fused to the N-terminus of each kappa light chain of h15A7H IgG4p
Apoptosis % (background subtracted, n = 4), mean, at 0.0625 µg/mL, SP2/O-hPSGL-1 cells, Annexin V/PI [1]: 15.5% | Apoptosis % (background subtracted, n = 4), mean, at 0.5 µg/mL, SP2/O-hPSGL-1 cells, Annexin V/PI [1]: 23.8% | mean fluorescence intensity [2]: 5540 MFI | mean fluorescence intensity [3]: 7060 MFI | mean fluorescence intensity [4]: 5740 MFI | mean fluorescence intensity [5]: 4380 MFI

Reference: US20250092151A1 (ALTRUBIO, published 2025)
